To fix the notation:
B1: Hairpin Ribozyme (parent)
chain: GUCCUCUUUCACGUGCGCGUGAAAGAGAGAAGUGAACCAGAGAAACACACGUUGUGGUAUAUUACCUGGUA

The variants in this series derive from B1. Nature of the series: self-cleavage, relative activity (ratio to wild type); higher = more cleavage; co-transcriptional.
As to A43G A61C, the self-cleavage is 0.0791. In the case of A41U U58A, the self-cleavage was determined as 1.2. Regarding A41U U58G, the self-cleavage was 1.02. Then A43C A44C, with 0.259; and G42C U52G, with 0.237. With A41U G68C, the self-cleavage amounted to 0.262. Then A41U G68U, with 0.423; and A41U U60G, with 1.15. As to A43G C48A, the self-cleavage turned out to be 0.174. For the variant A43G C48U, the self-cleavage is 0.123. With A43G U60G, the self-cleavage was 0.0362.

Take A43G U60A: the self-cleavage was determined as 0.202. Then G42U C65U, with 0.12; and G42U U53A, with 0.298. Regarding G42U U53C, the self-cleavage was determined as 0.233.

Take G42A U55A: the self-cleavage is 0.104. Turning to G42A U55C, the self-cleavage came out at 0.103. Regarding G42A U55G, the self-cleavage stood at 0.249.

Take A43C U58G: the self-cleavage is 0.262. In the case of A43C U58C, the self-cleavage was found to be 0.148. On to A43C G68C, for which the self-cleavage worked out at 0. For G42C U63C, the self-cleavage was determined as 0.148.

For A41U G57C, the self-cleavage worked out at 0.178.

As to A41U G57A, the self-cleavage worked out at 0.145.

Turning to G42A A43U, the self-cleavage is 0.215. Take G42U U60A: the self-cleavage is 0.178. For G42U U60G, the self-cleavage stood at 0.218. For the variant G42U U60C, the self-cleavage stood at 0.241. With A41U G51C, the self-cleavage was found to be 1.27.

Take G42C C48A: the self-cleavage came to 0.134. Take A43C U70G: the self-cleavage turned out to be 0.12. On to A43C U70C, for which the self-cleavage worked out at 0.164.

On to A43G U58G, for which the self-cleavage worked out at 0.212.

Turning to A43G U58C, the self-cleavage is 0.12. Turning to G42A A47C, the self-cleavage stood at 0.219. Turning to G42A U67C, the self-cleavage was determined as 0.105. Under G42C U53A stands 0.332; under A43C C48U, 0.16.

In the case of G42U A59G, the self-cleavage was determined as 0.172.

In the case of G42U A59C, the self-cleavage was 0.118. Then G42U A59U, with 0.151; and G42C U58A, with 0.218; and A41U C46A, with 0.0476.

Take G42A A59U: the self-cleavage worked out at 0.101.

For G42A A59G, the self-cleavage worked out at 0.264. Under A41U C65U stands 1.19. In the case of A41U C65A, the self-cleavage came out at 0.756. Under A41U U67A stands 0.364; under A41U U67G, 0.534; under A43G U52C, 0.064. G42A U63C: the self-cleavage was 0.113. Turning to G42C G54U, the self-cleavage came to 0.17. In the case of G42C G54A, the self-cleavage was 0.159. Take G42C U70A: the self-cleavage turned out to be 0.222. In the case of G42C U70C, the self-cleavage stood at 0.233. For A43G C46A, the self-cleavage stood at 0.153. As for A43G A49G, the self-cleavage was 0.0811.

As to A41U G54C, the self-cleavage came out at 0.891. As for A43C G51U, the self-cleavage was found to be 0.0904.

For G42U A61C, the self-cleavage stood at 0.193. Regarding A43C G69C, the self-cleavage came to 0.196. Regarding A43C G69U, the self-cleavage worked out at 0.161. Take A43C G69A: the self-cleavage amounted to 0.105. Regarding A41U C48G, the self-cleavage is 0.241. Regarding G42A A71C, the self-cleavage stood at 0.566. Under G42A A71U stands 0.159; under A43G U70A, 0.225; under A43G U70C, 0.19. For A43G U70G, the self-cleavage stood at 0.288. For the variant A43C U53G, the self-cleavage amounted to 0.103.

Take G42U A71C: the self-cleavage is 0.6.

G42C C46A: the self-cleavage amounted to 0.166.

On to A41U U55A, for which the self-cleavage came out at 0.808. Consider A41U U55C, for which the self-cleavage was found to be 0.762. Then A41U U55G, with 0.485; and A43G U63C, with 0.156; and A43G U63G, with 0.11. Under A43G U63A stands 0.134; under A41U U52C, 1.11. Under A41U U52A stands 1.23. Consider G42U A49C, for which the self-cleavage turned out to be 0.173.

In the case of G42C U55C, the self-cleavage came out at 0.158. For G42C U55G, the self-cleavage was determined as 0.173. Then G42C U55A, with 0.169; and A43C, with 0.141; and A43G, with 0.148. Regarding A43U, the self-cleavage stood at 0.151.

G42A A64C: the self-cleavage worked out at 0.129.

Turning to G42U G51C, the self-cleavage amounted to 0.392.

In the case of A43G G51A, the self-cleavage is 0.0738. Turning to A43G G51C, the self-cleavage turned out to be 0.107. Under G42U U67G stands 0.127. In the case of G42C A61U, the self-cleavage worked out at 0.136. Consider G42C A61G, for which the self-cleavage was determined as 0.178. For the variant A41U U63A, the self-cleavage turned out to be 0.105. Turning to A43C C46A, the self-cleavage was determined as 0.1. Then A43C C46G, with 0.245; and A43C U63C, with 0.157. Under G42A C46A stands 0.152.

Turning to G42C G51C, the self-cleavage came to 0.227. As to A43C C66G, the self-cleavage turned out to be 0.0604.

As for G42A A45G, the self-cleavage amounted to 0.138. Under G42C A49C stands 0.215; under G42C A45C, 0.0604. Under G42A G57C stands 0.0908; under G42A G57A, 0.14.

As for A41U U53C, the self-cleavage is 1.25. Then G42A C66A, with 0.0634.

In the case of G42A C66G, the self-cleavage was determined as 0.113. As for A43G A64G, the self-cleavage stood at 0.132. Under A41U A71G stands 1.14; under A41U A71C, 1.58; under A41U A59G, 0.255. For G42A U60C, the self-cleavage came out at 0.371. Take G42A U60G: the self-cleavage came out at 0.157. Regarding A43G A45G, the self-cleavage stood at 0.104.

With A43G A45C, the self-cleavage was 0.142. Then A43C G57C, with 0.204; and A43C G57A, with 0.137.

Regarding G42A C50U, the self-cleavage worked out at 0.106.

In the case of G42A C50G, the self-cleavage amounted to 0.128. Then A43C U62A, with 0.12; and G42C A59G, with 0.195. Regarding G42C A43U, the self-cleavage worked out at 0.106. In the case of G42U U58G, the self-cleavage came out at 0.192. For the variant G42U U58C, the self-cleavage is 0.259.

Consider A43G C50U, for which the self-cleavage was found to be 0.198.

For the variant G42A G69C, the self-cleavage came to 0.118. Then G42C G68C, with 0.151; and G42C G68A, with 0.119. Regarding G42C G68U, the self-cleavage was 0.138. For A43G A59G, the self-cleavage amounted to 0.094. With G42A U52G, the self-cleavage turned out to be 0.0884. Turning to G42A U52C, the self-cleavage came to 0.208. Then A43G G56A, with 0.0841; and G42U C50U, with 0.197; and A43G G57A, with 0.198. A43G G57U: the self-cleavage was 0.151. With G42C G56A, the self-cleavage is 0.155.

For the variant A41U C50U, the self-cleavage was found to be 0.781. For the variant A41U G42U, the self-cleavage stood at 0.325.

Consider G42A A61G, for which the self-cleavage was found to be 0.201. As for A41U C66A, the self-cleavage turned out to be 0.271.

For A41U C66G, the self-cleavage was found to be 0.172.

For G42U U62G, the self-cleavage turned out to be 0.22. For G42U U62C, the self-cleavage stood at 0.149. On to G42U U62A, for which the self-cleavage stood at 0.2. In the case of A43C U52A, the self-cleavage turned out to be 0.136.

With A43G U53C, the self-cleavage is 0.107. Take A43G U53A: the self-cleavage amounted to 0.152.

A43G G68C: the self-cleavage amounted to 0.0248. Turning to G42U C48U, the self-cleavage is 0.132.

On to G42A C48U, for which the self-cleavage was found to be 0.0486.

Consider G42A U70G, for which the self-cleavage came out at 0.161.

As for A43G G69C, the self-cleavage turned out to be 0.268. Consider G42U U63A, for which the self-cleavage amounted to 0.195. On to A43G A44G, for which the self-cleavage stood at 0.0966. On to A43C A59C, for which the self-cleavage is 0.195. As for A43G A47G, the self-cleavage turned out to be 0.196. On to A43C G54U, for which the self-cleavage turned out to be 0.241. Under G42C A47G stands 0.116; under G42U C46A, 0.201; under A43G G54C, 0.168. With A43G G54U, the self-cleavage is 0.156.

In the case of A43G C65A, the self-cleavage amounted to 0.0913. As for G42U A44U, the self-cleavage stood at 0.19. Under G42U A44C stands 0.188.

For the origin of these results see the RNAGym collection of RNA variant scans (doi:10.7554/elife.80360).
